Results: publication PMC10514136, “Peptide-conjugated antimiRs improve myotonic dystrophy type 1 phenotypes by promoting endogenous MBNL1 expression” (Molecular Therapy. Nucleic Acids, 2023)
Values joined by “and” are separate entries in the source; they are usually repeats but may differ in a detail not shown here. Identical values can stand only once.

Legend:
[1] = tested on: MBNL1 protein levels in DM1 cells; assay type: cell-based, human; conditions: for EC50: median effective concentration for MBNL1 increase, DM1 myotubes, lipofection (X-tremeGENE HP), medium replaced after 4 h, cells collected day 4, each concentration in triplicate
Method: Immortalized MyoD-inducible (doxycycline) DM1 and control fibroblasts were kindly provided by Dr Furling (Institute of Myology, Paris, France).[38] For the activity assay, cells were seeded in 6-well plates at a density of 8 × 10^4 cells/well and grown in DMEM with 4.5 g/L glucose, 1% P/S, and 10% FBS (Sigma, St. Louis, MO). […] In all cases, the cells were grown at 37°C in a humidified atmosphere containing 5% CO2. Transdifferentiation was induced at day 0, and transfection was performed by lipofection with X-tremeGENE HP (Roche, Basel, Switzerland) 24 h later, with antimiRs and test compounds in the cell medium at different concentrations (from 0.4 nM to 5 μM). The medium was replaced with fresh differentiation medium 4 h afterward. In the gymnosis assay, test compounds were added to the culture medium only at the corresponding EC50 concentration. Cells were collected on day 4 of differentiation and were processed for protein extraction.
For total protein extraction, human muscle cells were sonicated while mouse muscles (gastrocnemius and quadriceps) were homogenized in Pierce RIPA buffer (Thermo Scientific, Waltham, MA) supplemented with protease and phosphatase inhibitor cocktails (Roche Applied Science, Penzberg, Germany). Quantification of total protein was performed with a Pierce BCA protein assay kit (Thermo Scientific) using bovine serum albumin as standard.
A 96-well plate QDB assay was used[87] to determine MBNL1 protein levels in all replicates and concentrations of each ON tested. This technique allows for high-throughput screening of low protein concentration samples over conventional western blot (WB) (Figure S9).[88] Cell samples (1 μg/well) and mice samples (2 μg/well) were prepared with 4× loading buffer, denatured (100°C for 5 min) and loaded in QDB plates (Quanticision Diagnostics, Research Triangle Park, NC). For the quantification of in vitro samples, the QDB was performed exactly as described in Moreno et al.[87] […] For Mbnl1 quantification in mouse muscle tissues, we implemented the following modifications: each sample was loaded in quadruplicate on three different plates. One was used to detect Mbnl1 with a mouse MB1a(4A8) antibody (DSHB, Iowa City, IA) using a 1:200 dilution. A second plate was used to quantify tubulin (endogenous normalization control) with a mouse 12G10 antibody (DSHB) using a 1:1,000 dilution. A third plate was used to quantify IgG signal (negative control to subtract background) using an anti-mouse-IgG secondary antibody (Sigma-Aldrich) at 1:3,500 dilution. […] All primary antibodies were detected using horseradish peroxidase-conjugated anti-mouse-IgG secondary antibody (1:5,000 for the anti-mouse plate, 1:2,000 for cell plates, and 1:3,500 for mouse plates [Sigma-Aldrich, MO]). Immunoreactive bands were detected using Pierce ECL Western reagent (Thermo Scientific), and luminescence levels were determined using an Infinite M200 PRO plate reader (Tecan). […] WB assay was performed as described previously.[20]
After obtaining the TC50, EC50, and Emax in vitro, we defined a Tindex as follows: Tindex=TC50×Emax/EC50

Nfix exon 7 = assay: Alternative splicing of Nfix exon 7 in muscle by RT-PCR (PSI, splice recovery); assay type: in vivo, mouse; conditions: HSALR mice, individual mice; for Percentage spliced-in (PSI) Nfix Gast: 9.2 mg/kg (mean) i.v. x3, day 45, gastrocnemius; for Percentage spliced-in (PSI) Nfix Quads: 9.2 mg/kg (mean) i.v. x3, day 45, quadriceps
Method: (§1) Total RNA from murine gastrocnemius and quadriceps muscle was isolated using the miRNeasy Mini Kit (QIAGEN, Hilden, Germany) according to the manufacturer’s instructions. One microgram of RNA was digested with DNase I (Invitrogen, Carlsbad, CA) and reverse transcribed with SuperScript II (Invitrogen) using random hexanucleotides. For subsequent PCR reactions, 20 ng of cDNA was used with GoTaq polymerase (Promega). Specific primers were used to analyze the alternative splicing of Nfix, Atp2a1, and Clcn1 in mouse samples (both muscles). Gapdh levels established the endogenous reference levels using 0.2 ng of cDNA. PCR products were separated on a 2% agarose gel and quantified using ImageJ software (NIH, Bethesda, MD). PSR index was defined as value%SI minus X¯%DSI , divided by X¯%DSI minus X¯%HSI (SI, splicing inclusion of each sample; DSI, disease splicing inclusion; HSI, healthy splicing inclusion). Overall, PSR indicates the amount in both muscles analyzed. Primer sequences and exons analyzed are available in Cerro-Herreros et al.[20] In the case of off-targets, interleukins, and muscle regeneration marker Mstn-1, primers sequences are available in Table S5. We used 1 ng of mouse tissue cDNA as a template for multiplex qPCR using the QuantiFast Probe PCR Kit reagent. Commercial TaqMan probes (QIAGEN) were used for mouse (Mbnl1 and Mbnl2; FAM-labeled probes) and reference (GAPDH; MAX-labeled probe) genes. Results were normalized to Gapdh endogenous gene expression.
(§2) We used homozygous transgenic HSA^LR (line 20 b) mice,[90] which were kindly provided by Dr Thornton (Rochester, NY) and were housed and bred in our animal facility. Experimental groups were FVB as healthy control and HSA^LR treated with a scrambled ON (SC) and PBS as negative controls, and HSA^LR mice treated with all six experimental CPP-PMOs. The mice were randomly allocated to the different treatments as follows: in each cage, each mouse was ear-marked as it was taken out, and each mouse was then assigned to a different treatment. […] Mice were sacrificed 45 days after the first injection and the tissues of interest were frozen in liquid nitrogen for the molecular and histological assays. All the mice used in this study ranged from 5 to 5.5 months of age and all were males.

Clcn1 exon 7a = assay: Alternative splicing of Clcn1 exon 7a in muscle by RT-PCR (PSI, splice recovery); assay type: in vivo, mouse; conditions: HSALR mice, individual mice; for Percentage spliced-in (PSI) Clcn1 Gast: 9.2 mg/kg (mean) i.v. x3, day 45, gastrocnemius; for Percentage spliced-in (PSI) Clcn1 Quads: 9.2 mg/kg (mean) i.v. x3, day 45, quadriceps
Method: as §1, §2

HSALR mice = assay: Serum biochemistry profile; assay type: in vivo, mouse
Description: Mouse handling and experimental procedures followed the European law regarding laboratory animal care and experimentation (2003/65/C.E.) and were approved by Conselleria de Agricultura, […] (reference no. A1539961490857). We used homozygous transgenic HSA^LR (line 20 b) mice,[90] which were kindly provided by Dr Thornton (Rochester, NY) and were housed and bred in our animal facility. […] The mice were randomly allocated to the different treatments as follows: in each cage, each mouse was ear-marked as it was taken out, and each mouse was then assigned to a different treatment. Animals were injected biweekly intravenously with 150 μL of 1× PBS vehicle (controls; […] Mice were sacrificed 45 days after the first injection and the tissues of interest were frozen in liquid nitrogen for the molecular and histological assays. All the mice used in this study ranged from 5 to 5.5 months of age and all were males. At 45 days post treatment, animals were sacrificed, and blood was collected by cardiac puncture exsanguination with K3-EDTA (Sarstedt, Nümbrecht, Germany). The samples were analyzed by Laboratorios Montoro Botella (Valencia, Spain).

[2] = HSALR mice, 9.2 mg/kg (mean) i.v. x3, day 45, serum, mean ± sd, n = 5

For “9b2KC-218 (antisense ACAUGGUUAGAUCAAGCACAA; all phosphorodiamidate morpholino (PMO), T or U not given here; Pip9b2KC peptide conjugated)”, the “Tindex (therapeutic index)” value ([1]; Tindex = TC50 x Emax / EC50) was 198.07, the EC50 [1] was 2.58 nM and the MBNL1 fold change ([1]; transfection, 10 nM, vs untreated DM1 cells) was about 6 fold. The “Percentage spliced-in (PSI) Nfix Gast” value (Nfix exon 7) was 66.68% and 66.91% and 60.18% and 67.84% and 62.07%, the “Percentage spliced-in (PSI) Nfix Quads” value (Nfix exon 7) was 48.85% and 67.46% and 51.19% and 51.94% and 21.60% and the “Percentage spliced-in (PSI) Clcn1 Gast” value (Clcn1 exon 7a) was 32.73% and 22.25% and 31.59% and 22.57% and 29.41%. For the same substance, the “Percentage spliced-in (PSI) Clcn1 Quads” value (Clcn1 exon 7a) was 2.19% and 27.06% and 25.84% and 30.53% and 22.73%, the ALT (HSALR mice; mouse, in vivo, iv, 9.2 mg/kg) was 47 ± 10 U/L and the “Alkaline Phosphatase” value (HSALR mice; mouse, in vivo, iv, 9.2 mg/kg) was 59,8 ± 6,300 U/L. The Amylase (HSALR mice; mouse, in vivo, iv, 9.2 mg/kg) was 2593,4 ± 987,253 U/L, the “Bile Acids” value (HSALR mice; mouse, in vivo, iv, 9.2 mg/kg) was 55,20 ± 107,339 µmol/L and the Bilirubin (HSALR mice; mouse, in vivo, iv, 9.2 mg/kg) was 0,112 ± 0,026 mg/dL. For the same substance, the Creatinine (HSALR mice; mouse, in vivo, iv, 9.2 mg/kg) was 0,22 ± 0,084 mg/dL, the Lipase (HSALR mice; mouse, in vivo, iv, 9.2 mg/kg) was 134,4 ± 227,401 U/L and the Urea (HSALR mice; mouse, in vivo, iv, 9.2 mg/kg) was 41 ± 1,871 mg/dL.

With “TCTTACCTCAGTTACAATTTA-Pip9b2 [Scramble, reference compound]” the “Emax (maximum fold change)” value ([1]; highest MBNL1 protein level vs untreated DM1 cells over the concentrations tested, transfection) was 1.30 fold change, the EC50 [1] was 890 nM and the “ability to enhance MBNL1 expression” value ([1]; transfection, all concentrations tested (10 nM to 5 μM)) was “no ability to enhance MBNL1 expression at any concentration tested”. The “Percentage spliced-in (PSI) Nfix Gast” value (Nfix exon 7) was 62.98% and 52.74% and 55.70% and 81.00% and 76.46%, the “Percentage spliced-in (PSI) Nfix Quads” value (Nfix exon 7) was 60.30% and 80.52% and 66.59% and 72.38% and 72.49% and the “Percentage spliced-in (PSI) Clcn1 Gast” value (Clcn1 exon 7a) was 12.37% and 14.67% and 42.81% and 26.86% and 36.37%. The “Percentage spliced-in (PSI) Clcn1 Quads” value (Clcn1 exon 7a) was 28.91% and 16.71% and 28.33% and 34.05% and 38.65%, the ALT (HSALR mice; [2]) was 47,6 ± 11,327 U/L and the AST (HSALR mice; [2]) was 129,60 ± 33,687 U/L. For the same substance, the “Alkaline Phosphatase” value (HSALR mice; [2]) was 61 ± 6,557 U/L, the Amylase (HSALR mice; [2]) was 3234,2 ± 476,489 U/L and the “Bile Acids” value (HSALR mice; [2]) was 3,38 ± 5,188 µmol/L. For the same substance, the Bilirubin (HSALR mice; [2]) was 0,118 ± 0,026 mg/dL, the C.P.K. (HSALR mice; [2]) was 763 ± 244,663 U/L and the Creatinine (HSALR mice; [2]) was 0,20 ± 0 mg/dL. For the same substance, the Glucose (HSALR mice; [2]) was 113,60 ± 35,352 mg/dL, the L.D.H. (HSALR mice; [2]) was 2438,8 ± 183,91 U/L and the Total cholesterol (HSALR mice; [2]) was 224,40 ± 11,216 mg/dL. The Triglycerides (HSALR mice; [2]) was 259,8 ± 56,287 mg/dL.
